Laboratory results: article PMC5171940 (2016)
Where no end group is shown, it is not given here.

How the values were obtained:
[1] = target: T1, Aβ monomers on the SPR chip: biotinylated Aβ 11–28 (also: biotin, position not given here); test: SPR
T1 chain: EVHHQKLVFFAEDVGSNK

[2] = target: Aβ oligomers: soluble prefibrillar aggregates of biotinylated Aβ(1–42) (biotin (position not given)); test: SPR
Chain of Aβ oligomers: soluble prefibrillar aggregates of biotinylated Aβ(1–42) (biotin (position not given)) (P05067 672-713): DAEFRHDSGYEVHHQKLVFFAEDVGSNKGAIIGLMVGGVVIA

B1: Crenezumab, fully humanized anti-Aβ monoclonal IgG4 (antibody, V domains shown)
VH: EVQLVESGGGLVQPGGSLRLSCAASGFTFSSYGMSWVRQAPGKGLELVASINSNGGSTYYPDSVKGRFTISRDNAKNSLYLQMNSLRAEDTAVYYCASGDYWGQGTTVTVSS
VL: DIVMTQSPLSLPVTPGEPASISCRSSQSLVYSNGDTYLHWYLQKPGQSPQLLIYKVSNRFSGVPDRFSGSGSGTDFTLKISRVEAEDVGVYYCSQSTHVPWTFGQGTKVEIK
- Kd [1]: 3.2 nM
- Kd [2]: 0.42 nM
